Source: patent US20130064834A1 (published 2013)

B1: H1M300N (antibody, V domains shown)
VH: EMQLVESGGGLVQPGGSLRLSCAASGFTFSSHWMKWVRQAPGKGLEWVANINQDGSEKYYVDSVKGRFTISRDNAKNSLFLQMNSLRAEDTAVYYCARDIVLMVYDMDYYYYGMDVWGQGTTVTVSS
VL: not shown
notes: Fully human version made in CHO cells
B2: H1H316P (antibody, V domains shown)
VH: EVQLVESGGGLVQPGGSLRLSCAASGFTFNNYAMNWVRQAPGKGLDWVSTISGSGGTTNYADSVKGRFIISRDSSKHTLYLQMNSLRAEDTAVYYCAKDSNWGNFDLWGRGTLVTVSS
VL: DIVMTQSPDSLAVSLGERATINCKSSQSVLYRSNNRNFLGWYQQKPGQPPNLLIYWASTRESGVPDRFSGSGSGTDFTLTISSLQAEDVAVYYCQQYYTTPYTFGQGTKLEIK
notes: Fully human mAb made in CHO cells; also called mAb316P

How the values were obtained:
[1] = target: T1, Human PCSK9-myc-myc-his (human, UniProt Q8NBP7 31-692); experiment: SPR, mAb captured on anti-hFc, 37C
T1 construct: also called hPCSK9-mmh; hPCSK9

[2] = target: T2, tagged rhesus monkey (Macaca mulata) PCSK9 (rhesus monkey (Macaca mulata), UniProt A8T666 31-692); experiment: SPR, mAb captured on anti-hFc, 37C
T2 construct: also called mmPCSK9-mmh; mmPCSK9
T2 sequence (A8T666 31-692 limits assumed): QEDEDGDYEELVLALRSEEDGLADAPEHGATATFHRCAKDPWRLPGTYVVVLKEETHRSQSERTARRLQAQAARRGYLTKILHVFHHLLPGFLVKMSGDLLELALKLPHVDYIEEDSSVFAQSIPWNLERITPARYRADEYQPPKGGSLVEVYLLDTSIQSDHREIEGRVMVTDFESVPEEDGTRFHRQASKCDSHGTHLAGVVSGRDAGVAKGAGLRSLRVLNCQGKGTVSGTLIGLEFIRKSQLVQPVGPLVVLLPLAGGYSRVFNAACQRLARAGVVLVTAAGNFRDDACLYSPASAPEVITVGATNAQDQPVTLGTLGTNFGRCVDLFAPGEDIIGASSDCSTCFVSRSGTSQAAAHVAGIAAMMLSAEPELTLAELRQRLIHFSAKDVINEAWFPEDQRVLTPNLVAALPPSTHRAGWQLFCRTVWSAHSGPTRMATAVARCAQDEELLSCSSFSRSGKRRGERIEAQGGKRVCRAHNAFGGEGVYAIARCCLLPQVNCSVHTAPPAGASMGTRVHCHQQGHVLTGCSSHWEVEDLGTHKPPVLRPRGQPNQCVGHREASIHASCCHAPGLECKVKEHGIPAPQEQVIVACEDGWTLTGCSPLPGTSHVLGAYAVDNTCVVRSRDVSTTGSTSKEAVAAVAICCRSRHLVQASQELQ

[3] = target: T3, cynomolgus monkey (Macaca fascicularis) PCSK9, myc-myc-his tagged (cynomolgus monkey (Macaca fascicularis), UniProt A8T662 31-692 (Macaca nemestrina entry), limits assumed); experiment: SPR, mAb captured on anti-hFc, 37C
T3 construct: also called mfPCSK9-mmh; mfPCSK9
T3 sequence (A8T662 31-692 limits assumed): as the sequence (A8T666 31-692 limits assumed) above, with P607A, K639E counted along it

[4] = target: T4, hPCSK9(D374Y)-mmh (human, UniProt Q8NBP7 31-692); experiment: SPR, mAb captured on anti-hFc, 37C
T4 construct: also called hPCSK(D374Y)-mmh

[5] = target: T5, Chimeric protein #2 (hPro-mCat-mC-term-mmh) (human; mouse, UniProt Q80W65 19-694); experiment: ELISA, mAb coated, 1.7 nM antigen
[6] = target: T6, mouse PCSK9, myc-myc-his tagged (mouse, UniProt Q80W65 35-694); experiment: ELISA, mAb coated, 1.7 nM antigen
T6 construct: also called mPCSK9-mmh; mPCSK9

[7] = target: T2, tagged rhesus monkey (Macaca mulata) …; experiment: ELISA, mAb coated, 1.7 nM antigen
[8] = target: T3, cynomolgus monkey (Macaca fascicularis) …; experiment: ELISA, mAb coated, 1.7 nM antigen
[9] = target: T7, Chimeric protein #1 (mPro-hCat-mC-term-mmh) (mouse; human, UniProt Q80W65 35-694); experiment: ELISA, mAb coated, 1.7 nM antigen
T7 chain: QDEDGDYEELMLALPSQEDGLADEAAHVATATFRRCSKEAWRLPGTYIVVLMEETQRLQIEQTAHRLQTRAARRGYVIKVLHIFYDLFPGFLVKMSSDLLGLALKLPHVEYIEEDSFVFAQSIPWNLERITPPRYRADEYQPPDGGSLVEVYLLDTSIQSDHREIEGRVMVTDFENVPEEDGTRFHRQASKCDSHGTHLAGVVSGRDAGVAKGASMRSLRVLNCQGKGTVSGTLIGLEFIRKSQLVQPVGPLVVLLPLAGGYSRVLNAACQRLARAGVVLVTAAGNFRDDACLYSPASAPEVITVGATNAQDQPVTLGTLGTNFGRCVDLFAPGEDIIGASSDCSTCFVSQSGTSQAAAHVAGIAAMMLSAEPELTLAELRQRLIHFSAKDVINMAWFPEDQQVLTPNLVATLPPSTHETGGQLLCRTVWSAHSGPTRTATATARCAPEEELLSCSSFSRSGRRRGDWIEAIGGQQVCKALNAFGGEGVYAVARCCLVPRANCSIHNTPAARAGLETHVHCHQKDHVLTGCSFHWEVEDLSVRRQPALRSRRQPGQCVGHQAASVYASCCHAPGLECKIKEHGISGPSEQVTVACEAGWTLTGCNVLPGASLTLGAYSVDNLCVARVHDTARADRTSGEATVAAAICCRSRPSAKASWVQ

[10] = target: T4, hPCSK9(D374Y)-mmh; experiment: ELISA, mAb coated, 1.7 nM antigen
[11] = target: T8, rat (Rattus norvegicus) PCSK9, myc-myc-his tagged (rat (Rattus norvegicus), UniProt P59996 31-691); experiment: ELISA, mAb coated, 1.7 nM antigen
T8 construct: also called rPCSK9-mmh; rPCSK9
T8 sequence (P59996 31-691 limits assumed): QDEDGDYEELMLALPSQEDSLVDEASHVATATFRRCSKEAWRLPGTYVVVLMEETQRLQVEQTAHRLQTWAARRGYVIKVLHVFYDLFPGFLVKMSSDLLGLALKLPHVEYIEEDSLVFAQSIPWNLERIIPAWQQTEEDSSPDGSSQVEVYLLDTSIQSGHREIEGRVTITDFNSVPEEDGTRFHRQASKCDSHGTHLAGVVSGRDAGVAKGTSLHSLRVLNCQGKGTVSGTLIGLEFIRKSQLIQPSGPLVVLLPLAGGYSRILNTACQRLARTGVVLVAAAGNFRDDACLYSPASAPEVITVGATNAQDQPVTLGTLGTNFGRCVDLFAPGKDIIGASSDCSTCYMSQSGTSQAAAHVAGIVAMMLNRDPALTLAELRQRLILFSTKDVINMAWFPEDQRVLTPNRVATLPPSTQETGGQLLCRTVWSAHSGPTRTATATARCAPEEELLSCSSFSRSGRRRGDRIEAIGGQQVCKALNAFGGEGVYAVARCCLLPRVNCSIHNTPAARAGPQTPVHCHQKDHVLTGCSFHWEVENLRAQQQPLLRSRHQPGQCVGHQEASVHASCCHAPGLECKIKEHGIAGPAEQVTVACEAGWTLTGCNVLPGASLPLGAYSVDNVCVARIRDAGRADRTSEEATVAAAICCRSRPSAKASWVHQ

[12] = target: T5, Chimeric protein #2 …; experiment: ELISA, mAb coated, 1.2 nM antigen;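 note: antigen allowed to bind for 1 h at room temperature, then captured protein revealed with an HRP-linked polyclonal anti-myc antibody and read as optical density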
Text: (§1) After 1 hr binding at RT, the plate was washed and bound test protein detected using HRP-conjugated anti-myc polyclonal antibody (++=OD>1.0; +=OD 0.4-1.0; −=OD<0.4).

[13] = target: T9, Chimeric protein #3 (mPro-mCat-hC-term-mmh) (mouse; human); experiment: ELISA, mAb coated, 1.2 nM antigen;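 note: antigen allowed to bind for 1 h at room temperature, then captured protein revealed with an HRP-linked polyclonal anti-myc antibody and read as optical density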
T9 chain: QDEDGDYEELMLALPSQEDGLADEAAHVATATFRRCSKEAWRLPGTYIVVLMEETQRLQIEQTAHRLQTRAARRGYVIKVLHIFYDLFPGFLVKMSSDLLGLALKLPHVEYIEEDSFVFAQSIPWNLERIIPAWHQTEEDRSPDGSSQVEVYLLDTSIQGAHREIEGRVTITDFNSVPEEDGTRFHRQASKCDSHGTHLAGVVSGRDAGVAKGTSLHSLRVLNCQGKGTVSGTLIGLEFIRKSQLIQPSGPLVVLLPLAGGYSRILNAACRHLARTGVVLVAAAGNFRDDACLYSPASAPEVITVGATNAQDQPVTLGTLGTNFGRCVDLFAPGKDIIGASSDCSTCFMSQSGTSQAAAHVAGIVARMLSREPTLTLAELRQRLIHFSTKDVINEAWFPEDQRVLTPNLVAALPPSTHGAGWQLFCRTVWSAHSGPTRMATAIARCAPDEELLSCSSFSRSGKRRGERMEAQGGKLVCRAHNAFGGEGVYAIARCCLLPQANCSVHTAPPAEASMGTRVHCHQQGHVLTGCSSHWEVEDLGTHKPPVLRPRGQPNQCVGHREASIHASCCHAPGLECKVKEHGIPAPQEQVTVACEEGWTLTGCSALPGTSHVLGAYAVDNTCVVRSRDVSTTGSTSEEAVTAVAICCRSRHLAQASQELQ
Text: as §1

[14] = target: T1, Human PCSK9-myc-myc-his; experiment: ELISA, mAb coated, 1.2 nM antigen;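 note: antigen allowed to bind for 1 h at room temperature, then captured protein revealed with an HRP-linked polyclonal anti-myc antibody and read as optical density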
Text: as §1

[15] = target: T7, Chimeric protein #1 …; experiment: ELISA, mAb coated, 1.2 nM antigen;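 note: antigen allowed to bind for 1 h at room temperature, then captured protein revealed with an HRP-linked polyclonal anti-myc antibody and read as optical density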
Text: as §1

[16] = target: T4, hPCSK9(D374Y)-mmh; experiment: ELISA, mAb coated, 1.2 nM antigen
Text: as §1

[17] = target: T9, Chimeric protein #3 …; experiment: SPR, mAb captured on anti-hFc, 100 nM antigen
Experimental: Changes in RU due to the binding of each protein to the mAb surface was determined.

| Binder | OD [5] [od] | OD [6] [od] | OD [7] [od] | OD [8] [od] | OD [9] [od] | OD [10] [od] | OD [11] [od] | also measured |
| --- | --- | --- | --- | --- | --- | --- | --- | --- |
| B1 | > 1.5 | < 0.7 | > 1.5 | > 1.5 | > 1.5 | > 1.5 | < 0.7 | Kd [1]: 2.4 nM; T1/2 [1]: 22 min; Kd [2]: 1.6 nM; T1/2 [2]: 26 min; Kd [3]: 3.8 nM; T1/2 [3]: 11 min; Kd [4]: 2.2 nM; T1/2 [4]: 14 min |
| B2 | > 1.5 | > 1.5 | > 1.5 | > 1.5 | > 1.5 | > 1.5 | > 1.5 | OD [12]: > 1 od; OD [13]: > 1 od; OD [14]: > 1 od; OD [15]: > 1 od; OD [16]: > 1 od; change in RU [17]: 467 RU |
